# Laboratory results as given in the RNAGym collection of RNA variant scans (doi:10.1073/pnas.2313332121).
# B1: TPR t1 (parent)
# chain: GACCAAUCUGCCCUCAGAGCUCGAGAACAUCUUCGGAUGCAGAGGAGGCAGGCUUCGGUGGCGCGAUAGCGCCAACGUCCUCAACCUCCAAUGCAUCCCACCACAUGAUGAUGCCUGAAGAGCCUUGGUUUUUUG
# Variants of: B1
# Assay: polymerase ribozyme fitness, log enrichment relative to wild type (log ratio); higher = more active; in vitro selection for triplet polymerase activity
# Summary of the method: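 To select mutant libraries of each subunit of a heterodimeric triplet polymerase ribozyme, built by PCR and transcribed, each was annealed with a biotinylated primer, partner subunit and triplets, then incubated frozen at −7 °C. Extended constructs were gel-excised, captured on streptavidin beads and amplified by RT-PCR, in one round carried out in triplicate. Illumina sequencing of input and output libraries kept genotypes with ≥10 input reads and ≥1 read per output. Fitness is the base-2 logarithm of genotype enrichment relative to wild-type enrichment, from inverse-variance-weighted replicate averages.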
row,Variant,polymerase ribozyme fitness (log ratio)
1,G93U,-1.12
2,C72G U78C,-0.909
3,G36A G52C A95G G113A,-3.73
4,A43G A103C A119G A121G G122U G135U,-4.67
5,C40U A68U G69A C88U G93A U133A,-6.63
6,A16U G42U C53G G71A G120A,-2.89
7,G17A C49G A50G U106A,-3.86
8,C102A C123G,-0.232
9,A95C U106A C124U,1.29
10,A5G C11G C28U U59G A118G G127U G135U,-2.91
11,C15U C101A,-2.35
12,G35A A46U A83U U87C C104U,-4.09
13,C12A C64A,-5.04
14,C11A C12U G71U A84C,-1.73
15,C85U U109G,-5.2
16,A66C A91U,-4.65
17,G77C C85A,-1.93
18,A46G C64U G110U C123G,-1.18
19,C31A G69U,-2.98
20,U32C A83G U87A U106A,-2.71
21,G93U U112A,0.151

row,Variant,polymerase ribozyme fitness (log ratio)
1,G17A G42U G57A G120C,-3.79
2,C8G G57A G117A A119U G135U,-2.27
3,C20G A83C A100U G120A U130C,-5.79
4,C11U A83C,-0.558
5,A50U G58C G71C C104A C124A,-3.2
6,C53A G113C,-2.28
7,U21C U92G U96G A100C C124G,-5.43
8,G47U G120C U131G,0.253
9,G60U C85A,-0.541
10,C34G C53U,-5.89
11,A5G C15U C72A C101U C124U,0.428
12,C12G G39U G60U C80G C123U,-4.73
13,G60U C82U,-0.383
14,G52C G69U C99U,-1.34
15,C72A C114G,-2.31
16,U7C G47A G48A A90C U112C,-1.65
17,A37U A41U C88U,-2.75
18,A100C G117A,-2.55
19,C40A C72A A100C U132C,-2.7
20,G117C G120C,-3.46
21,A37C U55C,-1.17

row,Variant,polymerase ribozyme fitness (log ratio)
1,C20U A26C G42U U54G C64U G122A C124A,-6.48
2,A41G C99A A119G U125A,-6.99
3,A18U U92G,-3.54
4,A6U G61A C79G,-1.4
5,C70U U87C,0.738
6,C73G G77U C114U,-3.31
7,G19A C62A U78A U81A C101G G113U U130A,-6.38
8,C101U U112A,0.284
9,C13A A16U G117U,-4.37
10,C8G A16U A90U,-0.236
11,C73U C104U,0.0551
12,C8U C56G C80A,-1.69
13,C73U C80U G135C,-0.322
14,G42C C53U G93A,-3.13
15,C40A A90G C123U,0.623
16,C62U C76G A83U C89G U116C U130G,-2.99
17,C22G A27U C88U A121U,-2.51
18,A50U C72G,-1.6
19,C20G A37U C62G C70U U112A,-6.02
20,G23A C64G C115U C123G,-6.62
21,U9G C12G C28G C40A C85A A90C C104A G110C,-4.42

row,Variant,polymerase ribozyme fitness (log ratio)
1,C12G G19C G23C U59C G60U,-6.79
2,G69U U133A,-0.00372
3,C70G U130G,-4.08
4,G71U G128U,-2.61
5,G69U C70A,-1.51
6,C13G U32C A46U C70A C104U,-3.75
7,C80U C88U A111G C114A,-4.84
8,C40U C80U C86U A91C U112G,-3.87
9,C15A G52U A66U C94G,-5.17
10,C40G C49U A84U,-2.42
11,A6G C8A,-0.14
12,U9G G10A U14G A46G G48A A66G,-2.94
13,A5U G19A G69U C72G U112G,-3.83
14,A6C C12U A46G A118G,0.142
15,A37U A100C A103U,-5.74
16,A41U G42C C53A C85U,-4.01
17,G58A C86U,-0.881
18,A84C C88A,-0.593
19,A6U G23U,-4.65
20,C13A C85G C123U,-0.463
